T1: Plasmodium berghei HAP2 domain 3 (P. berghei)
T1 chain: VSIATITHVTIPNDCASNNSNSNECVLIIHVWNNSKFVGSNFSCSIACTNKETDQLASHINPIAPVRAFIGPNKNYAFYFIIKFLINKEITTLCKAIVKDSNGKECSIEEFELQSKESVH

T2: Plasmodium falciparum HAP2 domain 3 (PfHAP2 D3 HisAvi), deglycosylated (P. falciparum, deglycosylated with PNGase F)
T2 chain: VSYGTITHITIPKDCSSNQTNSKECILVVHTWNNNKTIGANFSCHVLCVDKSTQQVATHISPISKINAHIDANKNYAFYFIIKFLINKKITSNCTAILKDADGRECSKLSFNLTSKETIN

T3: Plasmodium vivax HAP2 domain 3 (P. vivax)
T3 chain: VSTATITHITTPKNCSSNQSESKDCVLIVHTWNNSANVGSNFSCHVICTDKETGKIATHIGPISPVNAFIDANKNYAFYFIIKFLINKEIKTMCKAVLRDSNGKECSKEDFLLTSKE


Experiments:
[1] = target: T1, Plasmodium berghei HAP2 domain 3; test: BLI
[2] = target: T2, Plasmodium falciparum HAP2 domain 3 …; test: BLI; single experiment
[3] = target: T3, Plasmodium vivax HAP2 domain 3; test: BLI
[4] = target: T2, Plasmodium falciparum HAP2 domain 3 …; test: BLI

Binder | Kd [1] | Kd [2] | Kd [3] | Kd [4]
anti-PbHAP2 D3 mAb 1.12 (variable regions in AbVec-hIgG1 and AbVec-IgKappa) (antibody, V domains shown) VH: EFQLLQSGPELVKPGASVKISCKASDYSLSDYNMNWVRQRSGKSLEWIGVINPNHGTTHYNQKFKGKATLTVDQSSSTAYMQLTSLTSEDSAVYYCASPIHYGNHVPFDYWGQGTTVTVSS VL: DIQMTQTTSSLSASLGDRVTISCRTGQDISNYLNWYQQKPDGTVKLLIYFTSRLHSGVPSRFSGSGSGTDYSLTISNLEQEDIATYFCQQGITLPWTFGGGTKLEIK | 5.1 nM | – | – | –
anti-PbHAP2 D3 mAb 6.14 (variable regions in AbVec-hIgG1 and AbVec-IgKappa) (antibody, V domains shown) VH: EVQLVESGGGLVKPGGSLKLSCAASEFTFSDYGMHWVRQAPEKGLEWVASISSGSNSIYYSDTVKGRFTISRDNAKSILFLQMTSLRSEDTAMYYCSREAYFAMDYWGQGTSVTVSS VL: DIQMTQSPSSLSAILGGKVTITCKASQDIHKYIAWYQHKPGKGPRLLIYYTSTLQPGIPSRFSGSGSGRDYSFSISNLEPEDVATYFCLQYDNLYTFGGGTKVEIE | 12.1 nM | – | – | –
WNbFc 333 (nanobody WNb 333 fused to hinge and Fc of human IgG1) (Fc fusion) QVQLQESGGGSVQPGGSLRLSCAASGFTLEDYAIGWFRQAPGKGREGISCISSTDGSTHYADSAKGRFTISRDDAKNTAYLQMNSLKVEDTDVYYCAALSQEHMITVQRMCAVPAAHYWGRGTQVTVSS | 3650 nM | 9.5 nM | 2250 nM | 10.5 nM
WNbFc 334 (nanobody WNb 334 fused to hinge and Fc of human IgG1) (Fc fusion) QVQLQESGGGLVQPGGSLRLSCAASGFTLDDYAIGWFRQDPGKGREGVSCISLSDGSTYYADAVTGRFTISRDNAKDTVYLQMNSLKPEDTAVYYCAALSQKQMTTVQAMCAVPIANYWGQGTQVTVSS | 1440 nM | 19.7 nM | – | 22.2 nM
WNbFc 335 (nanobody WNb 335 fused to hinge and Fc of human IgG1) (Fc fusion) QVQLQESGGGLVQPGGSLRLSCEASASGTIVALGTMAWYRQAPGNQRELVATITEESSTYYADSVKGRCTISRDNARNTMYLRLNSLKPEDTAVYYCNLANFWGQGTQVTVSS | – | 35.2 nM | – | 38.8 nM

Source: article PMC12905498 (2026)
